T1: human Nectin-4 at the surface of SUM185 and SUM190 human breast cancer tumor cells (human, UniProt Q96NY8 32-510)
T1 sequence: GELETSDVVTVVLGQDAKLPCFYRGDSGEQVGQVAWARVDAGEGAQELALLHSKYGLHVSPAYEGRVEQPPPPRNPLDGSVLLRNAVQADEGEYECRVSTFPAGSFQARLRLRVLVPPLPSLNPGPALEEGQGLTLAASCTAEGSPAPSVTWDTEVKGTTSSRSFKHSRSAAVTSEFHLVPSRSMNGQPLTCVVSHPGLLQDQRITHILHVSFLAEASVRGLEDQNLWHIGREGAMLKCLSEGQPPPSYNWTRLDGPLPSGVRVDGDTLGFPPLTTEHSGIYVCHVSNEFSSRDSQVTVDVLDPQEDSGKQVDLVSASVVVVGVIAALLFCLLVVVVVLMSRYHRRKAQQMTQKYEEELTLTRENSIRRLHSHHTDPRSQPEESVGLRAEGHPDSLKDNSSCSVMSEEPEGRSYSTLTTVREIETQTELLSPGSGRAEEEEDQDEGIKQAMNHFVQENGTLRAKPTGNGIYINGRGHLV

T2: modified Nectin-4 having the Ig-like C2 type 1 and the Ig-like C2 type 2 domains and lacking the Ig-like V … (human, UniProt Q96NY8 148-510)
T2 construct: also called C1C2 construct
T2 sequence: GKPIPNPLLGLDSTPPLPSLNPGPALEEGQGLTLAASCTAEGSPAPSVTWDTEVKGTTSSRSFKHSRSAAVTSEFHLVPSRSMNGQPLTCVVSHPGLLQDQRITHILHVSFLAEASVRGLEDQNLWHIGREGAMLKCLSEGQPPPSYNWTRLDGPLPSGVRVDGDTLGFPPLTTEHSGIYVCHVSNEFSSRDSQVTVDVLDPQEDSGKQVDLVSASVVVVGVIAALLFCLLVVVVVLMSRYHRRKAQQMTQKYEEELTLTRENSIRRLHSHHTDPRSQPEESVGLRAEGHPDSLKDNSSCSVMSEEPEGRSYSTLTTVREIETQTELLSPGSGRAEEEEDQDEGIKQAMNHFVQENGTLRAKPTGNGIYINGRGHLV

T3: wild-type human Nectin-4 protein expressed on CHO cells (huNectin4 CI.3C8 cell line) (human, UniProt Q96NY8 32-510)
T3 construct: also called whole Nectin-4 protein; wild type Nectin-4
T3 sequence: T1 sequence

B1: N4 ADC1: anti-Nectin-4 antibody (VH and VL of SEQ ID NOS: 9 and 10, human IgG1) conjugated to a linker-camptothecin analogue (antibody, V domains shown)
VH: QVQLKQSGPGLVQPSQSLSITCTVSGFSLTNYGVHWVRQSPGKGLEWLGVIWSGGSTDYNAAFISRLSISKDTSKSQVFFKMNSLQADDTAIYYCARELIHAMDNWGQGTSVTVSS
VL: DIQMTQSPASLSVSVGETVTITCRASENIYSNLAWYQQKQGNSPQLLVFAATNLADGVPSRFSGSGSGTQYSLKINSLQSEDFGTYYCQHFWGTPTFGGGTKLEIK
modifications: linker-camptothecin analogue conjugated stochastically via cysteine residues after partial reduction of interchain disulfide; average drug:antibody ratio of about 8
B2: N41 (VH and VL of SEQ ID NOS: 9 and 10 as human IgG1 isotype) (antibody, V domains shown)
VH: B1 VH
VL: B1 VL
notes: also called mAbC
B3: N4 ADC2: anti-Nectin-4 antibody (VH and VL of SEQ ID NOS: 9 and 10, human IgG1) conjugated to a SN-38 containing linker (antibody, V domains shown)
VH: B1 VH
VL: B1 VL
modifications: SN-38 containing linker conjugated via cysteine residues after partial reduction of interchain disulfide
B4: enfortumab (VH and VL of SEQ ID NOS: 3 and 4 as human IgG1 isotype) (antibody, V domains shown)
VH: EVQLVESGGGLVQPGGSLRLSCAASGFTFSSYNMNWVRQAPGKGLEWVSYISSSSSTIYYADSVKGRFTISRDNAKNSLSLQMNSLRDEDTAVYYCARAYYYGMDVWGQGTTVTVSS
VL: DIQMTQSPSSVSASVGDRVTITCRASQGISGWLAWYQQKPGKAPKFLIYAASTLQSGVPSRFSGSGSGTDFTLTISSLQPEDFATYYCQQANSFPPTFGGGTKVEIKR
notes: also called mAbA; ASG-22ME

Columns and labels:
[1] = biological target: T1, human Nectin-4 at the surface of SUM185 …; test: cell-based or functional assay
[2] = biological target: T2, modified Nectin-4 having the Ig-like C2 …; test: flow cytometry on CHO cells expressing Nectin4-C1C2-V5
[3] = biological target: T3, wild-type human Nectin-4 protein …; test: flow cytometry on CHO cells expressing wild-type human Nectin-4

Row | Binder | IC50 of cell death, SUM185 cells, Cell Titer Glo viability at day 6 [1] | IC50 of cell death, SUM190 cells, Cell Titer Glo viability at day 6 [1] | binding result [2] | binding result [3]
1 | B1 | 0.05 nM | 0.1 nM | – | –
2 | B2 | – | – | no binding | binds
3 | B3 | – | 0.4 nM | – | –
4 | B4 | – | – | no binding | –

From patent US20230099149A1 (INNATE PHARMA, published 2023)
